Data published in article PMC11049809, “Determinants of mer Promoter Activity from Pseudomonas aeruginosa”.

T1: MerR (Tn501) (Pseudomonas aeruginosa (Tn501), UniProt P0A183 1-144)
T1 sequence: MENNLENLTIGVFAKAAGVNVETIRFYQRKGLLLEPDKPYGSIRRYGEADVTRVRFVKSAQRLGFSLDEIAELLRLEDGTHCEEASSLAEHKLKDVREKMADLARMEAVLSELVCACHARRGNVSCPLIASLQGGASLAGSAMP

B1: Pmer-M10 (dsDNA)
DNA 1: TTGACTCCGTACATGAGTACGGAGTAAGGT
DNA 2: ACCTTACTCCGTACTCATGTACGGAGTCAA
B2: Pmer-M12 (dsDNA)
DNA 1: TTGACTCCGTACATGAGTACGGGTAAGGT
DNA 2: ACCTTACCCGTACTCATGTACGGAGTCAA
B3: Pmer-M4 (dsDNA)
DNA 1: TTGACTCCGTACTGAGTACGGAAGTAAGGT
DNA 2: ACCTTACTTCCGTACTCAGTACGGAGTCAA
B4: Pmer-M7 (dsDNA)
DNA 1: TTGACTCCGTACATGAGACGGAAGTAAGGT
DNA 2: ACCTTACTTCCGTCTCATGTACGGAGTCAA
B5: Pmer-M1 (dsDNA)
DNA 1: TTGACTCGTACATGAGTACGGAAGTAAGGT
DNA 2: ACCTTACTTCCGTACTCATGTACGAGTCAA
B6: Pmer-M11 (dsDNA)
DNA 1: TTGACTCCGTACATGAGTACGGAATAAGGT
DNA 2: ACCTTATTCCGTACTCATGTACGGAGTCAA
B7: Pmer-M14 (dsDNA)
DNA 1: TTGACTCCGTACATGAGTACGGTAAGGT
DNA 2: ACCTTACCGTACTCATGTACGGAGTCAA

What follows are binders tested against T1, MerR (Tn501) (assay: EMSA; 0-600 nM MerR, 30 nM DNA, no Hg stated; 10 mM Tris-HCl pH 8.0, 50 mM KCl, 5 mM MgCl2, 10% glycerol, 25 C 10 min; 8% native PAGE, 80 V 45 min). Conditions: protein: recombinant; chain copies: 2; blunt.
B1: binds. B2: binds. B3: no binding. B4: no binding. B5: binds. B6: binds. B7: binds.
